Changes are numbered by the printed parent chain.
What was measured:
CYP2C8-K399R (human) = biological target: T1, CYP2C8-K399R (human) (UniProt P10632)
T1 sequence: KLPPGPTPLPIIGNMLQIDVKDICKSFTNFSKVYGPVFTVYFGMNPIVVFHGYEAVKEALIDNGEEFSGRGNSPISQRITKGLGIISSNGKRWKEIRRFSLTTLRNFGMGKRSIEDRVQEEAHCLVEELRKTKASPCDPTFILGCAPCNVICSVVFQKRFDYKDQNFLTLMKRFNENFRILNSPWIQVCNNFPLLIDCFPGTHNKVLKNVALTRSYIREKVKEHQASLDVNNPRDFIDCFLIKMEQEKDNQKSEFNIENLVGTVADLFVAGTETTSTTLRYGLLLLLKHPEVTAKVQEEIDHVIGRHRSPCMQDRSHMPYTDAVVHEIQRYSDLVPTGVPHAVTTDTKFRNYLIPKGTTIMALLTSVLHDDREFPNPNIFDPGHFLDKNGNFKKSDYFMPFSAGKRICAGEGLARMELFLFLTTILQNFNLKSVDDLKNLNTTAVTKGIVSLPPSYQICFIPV

[1] = biological target: T2, Cytochrome P450 2C8 (CYP2C8*1, wildtype) (human) (UniProt P10632)
T2 sequence: T1 sequence with R372K

CYP2C8-R139K (human) = biological target: T3, CYP2C8-R139K (human) (UniProt P10632)
T3 sequence: T1 sequence with R112K, R372K

[2] = biological target: T4, Cytochrome P450 2C8 R139K/K399R (CYP2C8*3) (human) (UniProt P10632)
T4 sequence: T1 sequence with R112K

stopped-flow CO binding (first electron transfer from CPR), fast phase k1, 1:1 CPR:CYP, 70 uM paclitaxel, 37 °C (CYP2C8-K399R (human)): 0.445 s⁻¹ | stopped-flow CO binding (first electron transfer from CPR), slow phase k2, 1:1 CPR:CYP, 70 uM paclitaxel, 37 °C (CYP2C8-K399R (human)): 19.4 ms^-1 | stopped-flow CO binding (first electron transfer from CPR), fast phase k1, 1:1 CPR:CYP, 70 uM paclitaxel, 37 °C [1]: 0.468 s⁻¹ | stopped-flow CO binding (first electron transfer from CPR), fast phase k1, 1:1 CPR:CYP, 70 uM paclitaxel, 37 °C (CYP2C8-R139K (human)): 0.406 s⁻¹ | stopped-flow CO binding (first electron transfer from CPR), monophasic k2, 3:1 CPR:CYP, 70 uM paclitaxel, 37 °C (CYP2C8-R139K (human)): 6.02 ms^-1 | stopped-flow CO binding (first electron transfer from CPR), monophasic k2, 3:1 CPR:CYP, 70 uM paclitaxel, 37 °C [2]: 13.7 ms^-1
B1: Cytochrome P450 reductase (enzyme)
chain: MGDSHEDTSATMPEAVAEEVSLFSTTDMVLFSLIVGVLTYWFIFRKKKEEIPEFSKIQTTAPPVKESSFVEKMKKTGRNIIVFYGSQTGTAEEFANRLSKDAHRYGMRGMSADPEEYDLADLSSLPEIDKSLVVFCMATYGEGDPTDNAQDFYDWLQETDVDLTGVKFAVFGLGNKTYEHFNAMGKYVDQRLEQLGAQRIFELGLGDDDGNLEEDFITWREQFWPAVCEFFGVEATGEESSIRQYELVVHEDMDVAKVYTGEMGRLKSYENQKPPFDAKNPFLAAVTANRKLNQGTERHLMHLELDISDSKIRYESGDHVAVYPANDSALVNQIGEILGADLDVIMSLNNLDEESNKKHPFPCPTTYRTALTYYLDITNPPRTNVLYELAQYASEPSEQEHLHKMASSSGEGKELYLSWVVEARRHILAILQDYPSLRPPIDHLCELLPRLQARYYSIASSSKVHPNSVHICAVAVEYEAKSGRVNKGVATSWLRAKEPAGENGGRALVPMFVRKSQFRLPFKSTTPVIMVGPGTGIAPFMGFIQERAWLREQGKEVGETLLYYGCRRSDEDYLYREELARFHKDGALTQLNVAFSREQAHKVYVQHLLKRDREHLWKLIHEGGAHIYVCGDARNMAKDVQNTFYDIVAEFGPMEHTQAVDYVKKLMTKGRYSLDVWS

— PMC6769586
